In patent US20190225670A1, “COMPOUNDS AND METHODS FOR ACTIVATING TIE2 SIGNALING” (ASCLEPIX THERAPEUTICS, LLC, priority 2016, published 2019):

Legend:
α5 integrin subunit = target: T1, α5 integrin subunit (Homo sapiens, UniProt P08648); test: Triton X-100 fractionation of MEC lysates, α5 integrin; format: cell-based
T1 construct: host or cells: human dermal microvascular endothelial cells (MEC)
Experimental: α5β1-integrin heterodimer and αvβ3-integrin heterodimer are primary targets of AXT107.
The isolation of Triton X-100 soluble and insoluble fractions was performed using modifications to previously-described procedures (see, e.g., Lampugnani et al., J Cell Biol. 1995; 129(1):203-217). FN1-coated six-well plates were seeded with 2.5×10^6 cells and cultured for forty-eight hours, as described above. The cultures were then serum starved for ninety minutes in EBM-2 media, treated with 100 μM AXT107 or DMSO vehicle, and fifteen minutes with 1 mM sodium vanadate. […] The plates were then transferred to ice and washed twice with cold dPBS containing Ca^2+ and Mg^2+ and twice with EBM-2 media. The media was then removed and the cells incubated for thirty minutes on ice, at 4° C. in 200 μl of Triton X-100 extraction buffer (10 mM Tris-HCl, pH 7.5; 150 mM NaCl; 2 mM CaCl2); 1% NP-40; 1% […]; and a protease inhibitor cocktail (Cell Signaling, Cat#: 5871)) with occasional agitation. The extraction buffer was gently collected and centrifuged at 12,000×g for five minutes. The supernatant was then mixed with 125 μl of 3×Blue Loading Dye, boiled, and saved as the Triton X-100 soluble fraction at −20° C. […] Samples were analyzed by western blot as described above. […]

Tie2 = test: Retinopathy of prematurity (ROP) mouse model, Tie2 activation; format: in vivo; conditions: no data given
Excerpt: To investigate the effects of AXT107 on Tie2 activation in vivo, retinopathy of prematurity (ROP) mouse model was used. In this system, P7 pups are placed in 75% 02 for five days, resulting in a loss of retinal capillary density from hyperoxia and a rapid induction of neovascularization upon the pup's return to normoxic conditions. […] Increased levels of Ang2 in the vitreous contribute to vessel leakage and macular edema in various retinopathies.

T1 sequence (P08648 42-894 limits assumed): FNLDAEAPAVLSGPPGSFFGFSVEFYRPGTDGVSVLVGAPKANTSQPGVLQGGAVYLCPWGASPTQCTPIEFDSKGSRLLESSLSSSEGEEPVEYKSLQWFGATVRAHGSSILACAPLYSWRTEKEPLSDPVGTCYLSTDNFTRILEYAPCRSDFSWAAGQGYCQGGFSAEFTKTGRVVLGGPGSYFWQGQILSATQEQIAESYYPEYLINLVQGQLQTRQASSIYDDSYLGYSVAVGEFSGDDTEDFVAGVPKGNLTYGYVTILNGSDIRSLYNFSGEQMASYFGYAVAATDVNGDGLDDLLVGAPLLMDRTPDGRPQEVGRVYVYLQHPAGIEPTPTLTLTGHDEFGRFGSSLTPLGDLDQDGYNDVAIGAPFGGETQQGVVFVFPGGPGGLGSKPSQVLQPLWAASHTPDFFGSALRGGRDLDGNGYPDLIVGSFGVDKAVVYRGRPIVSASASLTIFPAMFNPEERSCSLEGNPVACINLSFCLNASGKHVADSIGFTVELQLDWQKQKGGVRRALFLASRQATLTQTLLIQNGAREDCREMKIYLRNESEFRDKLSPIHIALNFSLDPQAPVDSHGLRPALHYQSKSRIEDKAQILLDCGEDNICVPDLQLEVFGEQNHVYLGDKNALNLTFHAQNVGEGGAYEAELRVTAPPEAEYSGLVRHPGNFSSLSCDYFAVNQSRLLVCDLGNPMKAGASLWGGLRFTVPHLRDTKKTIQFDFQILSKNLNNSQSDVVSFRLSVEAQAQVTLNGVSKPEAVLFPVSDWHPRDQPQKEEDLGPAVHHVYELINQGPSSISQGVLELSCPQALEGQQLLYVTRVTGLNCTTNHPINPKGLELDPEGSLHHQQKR
T1 sequence (P08648 895-1049 limits assumed): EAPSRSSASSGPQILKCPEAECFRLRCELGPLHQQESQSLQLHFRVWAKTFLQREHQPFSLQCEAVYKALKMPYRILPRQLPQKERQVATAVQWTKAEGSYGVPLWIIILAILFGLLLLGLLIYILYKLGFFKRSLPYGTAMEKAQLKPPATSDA

Sequence: LRRFSTAPFAFIDINDVINF [AXT107]
- α5 integrin subunit location in fractionated lysates (α5 integrin subunit; 100 μM AXT107): relocated to the insoluble fraction
- α5 integrin after immunoprecipitation of Tie2 (α5 integrin subunit; Triton X-100 fractionated lysates, with 200 ng/ml Ang2 or no growth factor): observed in the peptide-treated, insoluble fraction
- activation of Tie2 by Ang2 in vivo (Tie2): potentiates the activation of Tie2 by Ang2
